The chains are these.
B1: scFv; the commonest letter at each place (parent)
chain 1: EVKLDETGGGLVQPGRPMKLSCVASGFTFSDYWMNWVRQSPEKGLEWVAQIRNKPYNYETYYSDSVKGRFTISRDDSKSSVYLQMNNLRVEDMGIYYCTGSYYGMDYWGQGTSVTVS
chain 2: DVVMTQTPLSLPVSLGDQASISCRSSQSLVHSNGNTYLRWYLQKPGQSPKVLIYKVSNRFSGVPDRFSGSGSGTDFTLKISRVEAEDLGVYFCSQSTHVPWTFGGGTKLEIK

The variants in the data set “fluorescein” derive from B1. In words: Kd (Tite-Seq). The following applies: with fluorescein; format: scFv 4-4-20, heavy + light.
Variants of B1 are the subject of data set [1]. The data set is described as follows: yeast surface expression (ratio to wild type); higher = more expressed. The following applies: format: scFv 4-4-20, heavy + light.

For orientation: Kd means the concentration at which binding is half-saturated. Consider chain 1 Y103N G104T, for which, in the data set with fluorescein, the Kd is ≥ 10000 nM. In addition, in data set [1], the yeast surface expression was 0.851.
The matching figures for chain 1 T28H: 1.58 nM and 0.965.
The matching figures for chain 1 F29R: ≥ 10000 nM and 0.758.
The like results for chain 1 F29M were, in that order, 2.51 nM and 1.21.
Consider chain 1 F29I, for which, in the data set with fluorescein, the Kd was 3.25 nM. Besides, the yeast surface expression in data set [1] turned out to be 1.01.
The like results for chain 1 D31G W33Q were, in that order, ≥ 10000 nM and 0.657.
The matching figures for chain 1 Y32V V37L: ≥ 10000 nM and 0.677.
The like results for chain 1 M34P N35Q were, in that order, ≥ 10000 nM and 0.194.
As to chain 1 G100Y D106I, the dissociation constant (Kd) with fluorescein is ≥ 10000 nM. In addition, the yeast surface expression in data set [1] came out at 0.398.
The like results for chain 1 T28K D31I were, in that order, ≥ 10000 nM and 0.645.
The like results for chain 1 D31S Y32C were, in that order, 6610 nM and 0.648.
The matching figures for chain 1 Y103G Y107W: 22.1 nM and 1.21.
Turning to chain 1 Y32T V37E, the dissociation constant Kd with fluorescein is ≥ 10000 nM. Besides, the yeast surface expression in data set [1] turned out to be 0.222.
The matching figures for chain 1 M34T W36Y: ≥ 10000 nM and 0.649.
The matching figures for chain 1 D31E: 2.78 nM and 0.925.
The matching figures for chain 1 D31L: 6.38 nM and 0.509.
With chain 1 F29K M34Y, in the data set with fluorescein, the Kd worked out at 7.08 nM. Moreover, the yeast surface expression in data set [1] came to 0.801.
The like results for chain 1 D31P V37W were, in that order, ≥ 10000 nM and 0.565.
The like results for chain 1 F29L M34K W36P were, in that order, 228 nM and 0.61.
As to chain 1 D31T W33F, the dissociation constant Kd with fluorescein amounted to 2110 nM. Moreover, the yeast surface expression in data set [1] is 0.629.
The like results for chain 1 G100N M105T were, in that order, ≥ 10000 nM and 0.413.
The matching figures for chain 1 Y107A G109M: ≥ 10000 nM and 0.209.
The like results for chain 1 W33N N35I were, in that order, ≥ 10000 nM and 0.657.
With chain 1 S101Y Y103G, the Kd with fluorescein was ≥ 10000 nM. For the same variant, in data set [1], the yeast surface expression is 0.935.
The matching figures for chain 1 Y103S D106K: ≥ 10000 nM and 0.311.
For chain 1 G100V Y107N G109P, the Kd with fluorescein is ≥ 10000 nM. The yeast surface expression in data set [1] was determined as 0.341.
The matching figures for chain 1 Y32R: 64 nM and 0.954.
With chain 1 Y32N, the equilibrium dissociation constant (Kd) with fluorescein was ≥ 10000 nM. The yeast surface expression in data set [1] worked out at 1.21.
The matching figures for chain 1 Y32T: ≥ 10000 nM and 1.04.
The matching figures for chain 1 Y32C: 143 nM and 1.05.
With chain 1 W108E G109T, the Kd with fluorescein is ≥ 10000 nM. Moreover, in data set [1], the yeast surface expression came out at 0.269.
The like results for chain 1 F29I Y32K were, in that order, 2.26 nM and 1.07.
The like results for chain 1 Y102I Y103W were, in that order, 1.5 nM and 1.15.
Regarding chain 1 T28I S30M, the Kd in the data set with fluorescein amounted to 1.04 nM. In addition, the yeast surface expression in data set [1] turned out to be 0.769.
The like results for chain 1 F29T D31N were, in that order, 18.9 nM and 1.01.
The like results for chain 1 G100I Y107E were, in that order, ≥ 10000 nM and 0.689.
Take chain 1 M105T Y107R: in the data set with fluorescein, the Kd is ≥ 10000 nM. For the same variant, in data set [1], the yeast surface expression came out at 0.527.
The like results for chain 1 M105T Y107N were, in that order, ≥ 10000 nM and 0.778.
The like results for chain 1 W33P M34H were, in that order, ≥ 10000 nM and 0.508.
The like results for chain 1 Y107C were, in that order, ≥ 10000 nM and 0.592.
For the variant chain 1 Y107I, in the data set with fluorescein, the Kd amounted to 676 nM. For the same variant, the yeast surface expression in data set [1] came to 0.995.
The like results for chain 1 S30H Y32R V37Q were, in that order, 18.9 nM and 1.99.
The matching figures for chain 1 N35M V37Y: ≥ 10000 nM and 0.798.
The like results for chain 1 F29P D31R were, in that order, 25.9 nM and 0.86.
On to chain 1 Y103P W108M, for which the dissociation constant (Kd) with fluorescein is ≥ 10000 nM. Further, the yeast surface expression in data set [1] was found to be 0.463.
As for chain 1 S30P N35V, the equilibrium dissociation constant (Kd) with fluorescein was ≥ 10000 nM. Also, the yeast surface expression in data set [1] stood at 0.636.
For the variant chain 1 S30A V37Y, the Kd with fluorescein worked out at 39.1 nM. Also, the yeast surface expression in data set [1] worked out at 1.1.
On to chain 1 S30A V37R, for which the Kd in the data set with fluorescein was 8.71 nM. Further, in data set [1], the yeast surface expression stood at 1.16.
The matching figures for chain 1 G104H W108R: ≥ 10000 nM and 0.272.
On to chain 1 G100I Y107P W108I, for which the Kd with fluorescein is ≥ 10000 nM. Besides, the yeast surface expression in data set [1] was determined as 0.471.
The matching figures for chain 1 W36Y: 5.32 nM and 0.923.
The like results for chain 1 G104Q G109T were, in that order, ≥ 10000 nM and 0.272.
The like results for chain 1 T28S Y32F W36H were, in that order, ≥ 10000 nM and 0.533.
In the case of chain 1 S101T M105S, the Kd with fluorescein is ≥ 10000 nM. In addition, in data set [1], the yeast surface expression worked out at 0.699.
The matching figures for chain 1 G104D G109V: ≥ 10000 nM and 0.266.
The matching figures for chain 1 D31A W36H: ≥ 10000 nM and 0.137.
The like results for chain 1 D106A Y107I were, in that order, 6610 nM and 0.646.
Regarding chain 1 M34L, the Kd with fluorescein stood at 1.42 nM. In data set [1], the yeast surface expression was 0.971.

For the origin of these results see the FLAb antibody collection (doi:10.7554/elife.23156).
